Values belong to the binder of their own block, whether it stands above or below them.
How the values were obtained:
human CXCR4 [1] = molecular target: T1, human CXCR4 (human, UniProt P61073 1-352); experiment: cell-based or functional assay
hCXCR7 = molecular target: T2, hCXCR7 (human, UniProt P25106 1-362); experiment: flow cytometry, IgG 100 nM, cells over-expressing hCXCR7
T2 construct: whole, on cells
Experimental: (§1) Cells over-expressing different GPCRs other than CXCR4 and several lines transfected to over-express CXCR4 (R1610-hCXCR4, Cf2Th-hCXCR4 and CHO-hCXCR4) were compared. Cultures were incubated with a test IgG at 100 nM in FACS buffer for 40 min at 4° C. Thereafter, cells were washed twice, stained with anti-human-Fc antibody-PE conjugate (Jackson Immunoresearch Laboratories Inc., West Grove, Pa.), washed twice in FACS buffer and then transferred to FIX buffer. Fluorescence intensities were measured by GUAVA PCA-96 at 425V (in triplicate).
(§2) The expression of GPCRs other than CXCR4 was confirmed using commercially available antibodies (positive controls). For example, a commercial anti-CXCR1 antibody was used as a positive control for confirming the expression of CXCR1 on the CXCR1-transfected CHO cells.

human CXCR4 [2] = molecular target: T1, human CXCR4; experiment: flow cytometry, IgG 100 nM, Cf2Th-hCXCR4 cells
Experimental: as §1

human CXCR4 [3] = molecular target: T1, human CXCR4; experiment: cell-based or functional assay; remark: listed apart in the source
hCCR6 = molecular target: T3, hCCR6 (human, UniProt P51684 1-374); experiment: flow cytometry, IgG 100 nM, cells over-expressing hCCR6
T3 construct: whole, on cells
T3 sequence (looked up): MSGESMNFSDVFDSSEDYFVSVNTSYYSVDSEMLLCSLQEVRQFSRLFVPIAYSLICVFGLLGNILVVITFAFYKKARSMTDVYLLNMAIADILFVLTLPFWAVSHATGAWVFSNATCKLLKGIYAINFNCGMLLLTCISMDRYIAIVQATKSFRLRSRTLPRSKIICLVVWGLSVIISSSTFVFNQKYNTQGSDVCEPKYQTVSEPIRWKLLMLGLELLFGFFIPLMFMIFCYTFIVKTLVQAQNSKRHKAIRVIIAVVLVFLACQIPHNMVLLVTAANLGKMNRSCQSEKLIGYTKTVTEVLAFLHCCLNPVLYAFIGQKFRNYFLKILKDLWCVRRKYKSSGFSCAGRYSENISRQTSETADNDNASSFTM
Experimental: as §1, §2

hCCR9 = molecular target: T4, hCCR9 (human, UniProt P51686 1-369); experiment: flow cytometry, IgG 100 nM, cells over-expressing hCCR9
T4 construct: whole, on cells
T4 sequence (looked up): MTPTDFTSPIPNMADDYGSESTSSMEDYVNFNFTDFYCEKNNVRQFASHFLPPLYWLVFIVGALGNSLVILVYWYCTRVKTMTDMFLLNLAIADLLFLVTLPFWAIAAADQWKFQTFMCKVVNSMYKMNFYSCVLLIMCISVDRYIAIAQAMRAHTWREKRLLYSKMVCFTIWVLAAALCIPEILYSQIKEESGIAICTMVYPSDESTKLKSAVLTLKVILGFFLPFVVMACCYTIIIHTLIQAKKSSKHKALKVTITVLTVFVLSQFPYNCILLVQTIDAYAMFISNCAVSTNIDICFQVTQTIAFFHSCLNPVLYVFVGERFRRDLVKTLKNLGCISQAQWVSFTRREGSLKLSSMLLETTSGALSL
Experimental: as §1

hCXCR6 = molecular target: T5, hCXCR6 (human, UniProt O00574 1-342); experiment: flow cytometry, IgG 100 nM, cells over-expressing hCXCR6
T5 construct: whole, on cells
T5 sequence (O00574 whole entry): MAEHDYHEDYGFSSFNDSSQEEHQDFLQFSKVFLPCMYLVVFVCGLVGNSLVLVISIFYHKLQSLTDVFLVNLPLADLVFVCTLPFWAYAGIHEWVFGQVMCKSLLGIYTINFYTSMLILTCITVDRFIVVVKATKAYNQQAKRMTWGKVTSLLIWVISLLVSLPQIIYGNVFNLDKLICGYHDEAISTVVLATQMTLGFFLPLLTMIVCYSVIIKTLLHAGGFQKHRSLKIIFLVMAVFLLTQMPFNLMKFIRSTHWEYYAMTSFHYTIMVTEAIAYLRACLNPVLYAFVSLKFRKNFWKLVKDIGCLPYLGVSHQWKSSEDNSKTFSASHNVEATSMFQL
Experimental: as §1, §2

hCXCR3 = molecular target: T6, hCXCR3 (human, UniProt P49682 1-368); experiment: flow cytometry, IgG 100 nM, cells over-expressing hCXCR3
T6 construct: whole, on cells
T6 sequence (looked up): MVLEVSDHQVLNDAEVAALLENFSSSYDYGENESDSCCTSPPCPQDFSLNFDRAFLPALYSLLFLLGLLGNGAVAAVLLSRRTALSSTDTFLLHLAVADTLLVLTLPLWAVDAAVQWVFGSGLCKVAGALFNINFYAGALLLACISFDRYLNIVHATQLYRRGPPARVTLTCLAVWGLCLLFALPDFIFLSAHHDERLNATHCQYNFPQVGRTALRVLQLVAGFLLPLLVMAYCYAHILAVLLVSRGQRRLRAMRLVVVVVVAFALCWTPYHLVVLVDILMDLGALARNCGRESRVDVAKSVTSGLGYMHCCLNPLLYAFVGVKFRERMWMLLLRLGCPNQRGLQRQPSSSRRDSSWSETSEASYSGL
Experimental: as §1, §2

hCCR4 = molecular target: T7, hCCR4 (human, UniProt P51679 1-360); experiment: flow cytometry, IgG 100 nM, cells over-expressing hCCR4
T7 construct: whole, on cells
T7 sequence (looked up): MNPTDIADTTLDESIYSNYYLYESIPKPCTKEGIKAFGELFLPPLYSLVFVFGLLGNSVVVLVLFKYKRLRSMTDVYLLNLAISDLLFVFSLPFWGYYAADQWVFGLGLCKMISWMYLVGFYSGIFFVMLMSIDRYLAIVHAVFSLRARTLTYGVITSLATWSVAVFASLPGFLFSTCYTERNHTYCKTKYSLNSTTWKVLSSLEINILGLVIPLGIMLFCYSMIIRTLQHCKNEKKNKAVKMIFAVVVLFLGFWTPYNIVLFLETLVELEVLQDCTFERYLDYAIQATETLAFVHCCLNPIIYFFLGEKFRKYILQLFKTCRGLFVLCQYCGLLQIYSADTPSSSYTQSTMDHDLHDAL
Experimental: as §1, §2

hCCR3 = molecular target: T8, hCCR3 (human, UniProt P51677 1-355); experiment: flow cytometry, IgG 100 nM, cells over-expressing hCCR3
T8 construct: whole, on cells
T8 sequence (looked up): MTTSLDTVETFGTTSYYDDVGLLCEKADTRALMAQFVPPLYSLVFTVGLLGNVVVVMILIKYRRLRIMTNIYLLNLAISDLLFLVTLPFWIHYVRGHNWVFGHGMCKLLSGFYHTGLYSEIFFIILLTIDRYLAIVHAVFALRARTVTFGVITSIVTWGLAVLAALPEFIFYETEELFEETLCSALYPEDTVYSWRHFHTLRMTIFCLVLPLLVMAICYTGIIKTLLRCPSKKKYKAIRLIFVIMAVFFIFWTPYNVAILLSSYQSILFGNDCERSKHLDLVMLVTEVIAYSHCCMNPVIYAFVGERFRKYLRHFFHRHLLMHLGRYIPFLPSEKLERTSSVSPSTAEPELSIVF
Experimental: as §1, §2

T2 sequence (P25106 whole entry): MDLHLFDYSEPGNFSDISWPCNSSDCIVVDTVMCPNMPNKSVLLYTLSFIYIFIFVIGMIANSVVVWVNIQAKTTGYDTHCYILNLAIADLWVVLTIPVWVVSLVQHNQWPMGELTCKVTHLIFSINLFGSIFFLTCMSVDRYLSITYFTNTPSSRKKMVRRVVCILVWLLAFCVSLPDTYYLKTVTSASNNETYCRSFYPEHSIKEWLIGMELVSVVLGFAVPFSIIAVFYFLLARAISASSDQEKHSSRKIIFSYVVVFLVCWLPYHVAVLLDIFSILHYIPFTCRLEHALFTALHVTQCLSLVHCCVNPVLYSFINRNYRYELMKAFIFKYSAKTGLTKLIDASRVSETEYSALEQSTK
T1 sequence (P61073 whole entry): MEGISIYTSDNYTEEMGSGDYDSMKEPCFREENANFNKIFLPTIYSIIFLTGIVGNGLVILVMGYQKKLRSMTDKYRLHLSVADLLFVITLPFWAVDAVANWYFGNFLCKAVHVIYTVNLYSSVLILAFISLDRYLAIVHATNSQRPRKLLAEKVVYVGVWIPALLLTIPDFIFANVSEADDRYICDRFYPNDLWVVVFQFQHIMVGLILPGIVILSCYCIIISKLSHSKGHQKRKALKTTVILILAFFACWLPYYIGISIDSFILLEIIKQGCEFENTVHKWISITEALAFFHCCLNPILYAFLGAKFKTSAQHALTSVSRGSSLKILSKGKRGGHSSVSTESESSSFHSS

% Inhibition of SDF-1alpha-induced chemotaxis of U937 cells (IgG at 100 nM) (human CXCR4 [1]): 78% | MFI (hCXCR7): 2 | MFI (human CXCR4 [2]): 2350 | IC50 (nM), inhibition of SDF-1alpha-induced calcium flux (human CXCR4 [3]): 5 nM | MFI (hCCR6): 2 | MFI (hCCR9): 2 | MFI (hCXCR6): 2 | MFI (hCXCR3): 2 | MFI (hCCR4): 2
B1: V62.1-R108H-m47-m38 (antibody, human IgG1, V domains shown)
VH: EVQLLESGGGLVQPGGSLRLSCAASGFTFSSYAMSWVRQAPGKGLEWVSAISGSGGTRYADSVKGRFTISRDNSKNTLYLQMNSLRAEDTAVYYCARQGKTRVYGYHWHGYGSTHALDYWGQGTLVTVSS
VL: EIVLTQSPGTLSLSPGERATLSCRASQSVSSSYLAWYQQKPGQAPRLLIYGASSRATGIPDRFSGSGSGTDFTLTISRLEPEDFAVYYCQQWSSDSVTFGQGTKVEIKR
notes: Tested as an IgG (human IgG1 format); also called V62.1-H-m47-m38; IgG1 62.1-R108H-m47-m38

% Inhibition of SDF-1alpha-induced chemotaxis of U937 cells (IgG at 100 nM) (human CXCR4 [1]): 69% | MFI (hCXCR7): 4 | MFI (human CXCR4 [2]): 861 | IC50 (nM), inhibition of SDF-1alpha-induced calcium flux (human CXCR4 [3]): 6.8 nM | MFI (hCCR6): 3 | MFI (hCCR9): 3 | MFI (hCCR3): 4 | MFI (hCXCR6): 3 | MFI (hCXCR3): 3 | MFI (hCCR4): 3
B2: V62.1-R108H (antibody, human IgG1, V domains shown)
VH: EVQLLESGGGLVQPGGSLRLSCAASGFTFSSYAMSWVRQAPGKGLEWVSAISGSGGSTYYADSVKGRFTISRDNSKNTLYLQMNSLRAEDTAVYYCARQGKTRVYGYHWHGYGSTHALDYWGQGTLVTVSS
VL: EIVLTQSPGTLSLSPGERATLSCRASQSVSSSYLAWYQQKPGQAPRLLIYGASSRATGIPDRFSGSGSGTDFTLTISRLEPEDFAVYYCQQSDYSYPFTFGQGTKVEIKR
notes: Tested as an IgG (human IgG1 format); also called IgG1 V62.1 R108H

% Inhibition of SDF-1alpha-induced chemotaxis of U937 cells (IgG at 100 nM) (human CXCR4 [1]): 75% | MFI (hCXCR7): 2 | MFI (human CXCR4 [2]): 3870 | IC50 (nM), inhibition of SDF-1alpha-induced calcium flux (human CXCR4 [3]): 7.5 nM | MFI (hCCR6): 10 | MFI (hCCR9): 8 | MFI (hCCR3): 2 | MFI (hCXCR6): 7 | MFI (hCXCR3): 2 | MFI (hCCR4): 2
B3: V62.1-R108H-m80 (antibody, human IgG1, V domains shown)
VH: EVQLLESGGGLVQPGGSLRLSCAASGFTISPYSITWVRQAPGKGLEWVSQINSYNGKTYYADSVKGRFTISRDNSKNTLYLQMNSLRAEDTAVYYCARQGKTRVYGYHWHGYGSTHALDYWGQGTLVTVSS
VL: B2 VL
notes: Tested as an IgG (human IgG1 format); also called V62.1-H-m80; V62.1-R108H-m80-Wt

% Inhibition of SDF-1alpha-induced chemotaxis of U937 cells (IgG at 100 nM) (human CXCR4 [1]): 76% | MFI (hCXCR7): 3 | MFI (human CXCR4 [2]): 1270 | IC50 (nM), inhibition of SDF-1alpha-induced calcium flux (human CXCR4 [3]): 7.4 nM | MFI (hCCR6): 3 | MFI (hCCR9): 4 | MFI (hCCR3): 4 | MFI (hCXCR6): 3 | MFI (hCXCR3): 3 | MFI (hCCR4): 3
B4: V62.1 (antibody, human IgG1, V domains shown)
VH: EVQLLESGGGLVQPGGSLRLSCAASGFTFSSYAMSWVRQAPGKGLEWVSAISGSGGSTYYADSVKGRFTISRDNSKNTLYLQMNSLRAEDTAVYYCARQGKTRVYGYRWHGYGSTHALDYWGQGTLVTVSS
VL: B2 VL
notes: Tested as an IgG (human IgG1 format; DP47 heavy and DPK22 kappa light frameworks) made in CHO-3E7 cells; also called IgG V62.1
